Source: PMC10296906, “GPCR Binding and JNK3 Activation by Arrestin-3 Have Different Structural Requirements” (Cells, 2023)

Target: T1, LgBiT-tagged human M2 muscarinic acetylcholine receptor (human, UniProt P08172 1-466)
T1 construct: M2 muscarinic acetylcholine receptor, human, Gi-coupled; stimulated with 10 µM carbachol; also called M2R; source: HEK293 arrestin-2/3 knockout cells, transfected (pcDNA3), in live cells; not shown: LgBiT (17.6 kDa, with the 4-amino acid linker APAG), C-terminal, kept
T1 sequence (looked up): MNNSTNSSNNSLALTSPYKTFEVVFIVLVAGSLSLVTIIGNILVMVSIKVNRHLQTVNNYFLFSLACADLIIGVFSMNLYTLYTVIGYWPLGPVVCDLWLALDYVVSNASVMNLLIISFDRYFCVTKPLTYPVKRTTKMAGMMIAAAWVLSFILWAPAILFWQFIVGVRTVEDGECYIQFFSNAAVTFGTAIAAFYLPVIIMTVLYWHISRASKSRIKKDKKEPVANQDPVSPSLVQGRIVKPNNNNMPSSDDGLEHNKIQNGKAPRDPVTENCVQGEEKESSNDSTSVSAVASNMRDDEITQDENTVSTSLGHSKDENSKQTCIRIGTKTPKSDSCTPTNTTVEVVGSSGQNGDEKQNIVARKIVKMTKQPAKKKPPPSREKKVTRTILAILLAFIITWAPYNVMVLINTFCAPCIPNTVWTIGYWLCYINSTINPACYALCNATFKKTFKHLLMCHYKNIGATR
Assay: split reporter (BiFC, NanoBiT); NanoBiT complementation in live HEK293 arrestin-2/3 KO cells: SmBiT-arrestin-3 and receptor-LgBiT co-expressed; luminescence read 20 min with nanoGlo substrate, then agonist added (10 µM isoproterenol for β2AR, 10 µM carbachol for M2R) and read 40 min; signal normalized to the basal signal without agonist
Settings: partners not purified

B1: SmBiT-tagged WT arrestin-3 (natural protein, UniProt P32120-2 1-409, looked up)
chain: MGEKPGTRVFKKSSPNCKLTVYLGKRDFVDHLDKVDPVDGVVLVDPDYLKDRKVFVTLTCAFRYGREDLDVLGLSFRKDLFIANYQAFPPTPNPPRPPTRLQERLLRKLGQHAHPFFFTIPQNLPCSVTLQPGPEDTGKACGVDFEIRAFCAKSLEEKSHKRNSVRLVIRKVQFAPEKPGPQPSAETTRHFLMSDRSLHLEASLDKELYYHGEPLNVNVHVTNNSTKTVKKIKVSVRQYADICLFSTAQYKCPVAQVEQDDQVSPSSTFCKVYTITPLLSNNREKRGLALDGKLKHEDTNLASSTIVKEGANKEVLGILVSYRVKVKLVVSRGGDVSVELPFVLMHPKPHDHIALPRPQSAAPETDAPVDTNLIEFETNYATDDDIVFEDFARLRLKGLKDEDYDDQFC
notes: also called arr3; WT arr3; source: HEK293 arrestin-2/3 knockout cells, transfected (pcDNA3), in live cells
- agonist-induced luminescence, fold over basal: ~8 fold
